The values below come from patent US20090111753A1, “Nogo-A Polypeptide Fragments, Variant Nogo Receptor-1 Polypeptides, and Uses Thereof” (Yale University, priority 2004, published 2009).

To fix the notation:
T1: human NgR2 (Homo sapiens, UniProt Q86UN3)
T1 construct: expressed in transfected cells; host or cells: COS-7
T1 sequence (Q86UN3 47-390): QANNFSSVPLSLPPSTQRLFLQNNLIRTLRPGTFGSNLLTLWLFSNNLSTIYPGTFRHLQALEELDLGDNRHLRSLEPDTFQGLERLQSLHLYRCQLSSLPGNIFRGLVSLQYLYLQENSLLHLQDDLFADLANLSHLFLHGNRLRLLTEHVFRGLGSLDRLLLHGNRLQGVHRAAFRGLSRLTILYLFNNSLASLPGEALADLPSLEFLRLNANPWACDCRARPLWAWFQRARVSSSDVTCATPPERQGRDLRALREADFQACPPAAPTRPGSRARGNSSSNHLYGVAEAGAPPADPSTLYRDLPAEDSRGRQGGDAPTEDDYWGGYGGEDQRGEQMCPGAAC

T2: mouse NgR3 (Mus musculus, UniProt Q8K0S5)
T2 construct: expressed in transfected cells; host or cells: COS-7
T2 sequence (Q8K0S5 25-424): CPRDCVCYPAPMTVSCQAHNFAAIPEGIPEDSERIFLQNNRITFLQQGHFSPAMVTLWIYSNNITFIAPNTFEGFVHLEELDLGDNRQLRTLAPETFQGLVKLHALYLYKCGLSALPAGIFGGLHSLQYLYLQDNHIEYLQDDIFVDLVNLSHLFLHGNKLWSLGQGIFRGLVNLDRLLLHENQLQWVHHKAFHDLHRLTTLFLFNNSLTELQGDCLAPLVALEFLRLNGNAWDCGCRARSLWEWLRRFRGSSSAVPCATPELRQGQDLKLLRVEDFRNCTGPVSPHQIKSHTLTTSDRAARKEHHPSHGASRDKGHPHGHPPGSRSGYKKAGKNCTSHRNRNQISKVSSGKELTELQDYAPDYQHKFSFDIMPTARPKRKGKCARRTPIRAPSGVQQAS

T3: AP-fused Amino-Nogo fragment A (a.a. 181-864) (human, UniProt Q9NQC3 181-864)
T3 construct: AP put first by the name; also called AmNg A; AP-AmNgA; not shown: alkaline phosphatase (AP), vector pcAP6
T3 sequence: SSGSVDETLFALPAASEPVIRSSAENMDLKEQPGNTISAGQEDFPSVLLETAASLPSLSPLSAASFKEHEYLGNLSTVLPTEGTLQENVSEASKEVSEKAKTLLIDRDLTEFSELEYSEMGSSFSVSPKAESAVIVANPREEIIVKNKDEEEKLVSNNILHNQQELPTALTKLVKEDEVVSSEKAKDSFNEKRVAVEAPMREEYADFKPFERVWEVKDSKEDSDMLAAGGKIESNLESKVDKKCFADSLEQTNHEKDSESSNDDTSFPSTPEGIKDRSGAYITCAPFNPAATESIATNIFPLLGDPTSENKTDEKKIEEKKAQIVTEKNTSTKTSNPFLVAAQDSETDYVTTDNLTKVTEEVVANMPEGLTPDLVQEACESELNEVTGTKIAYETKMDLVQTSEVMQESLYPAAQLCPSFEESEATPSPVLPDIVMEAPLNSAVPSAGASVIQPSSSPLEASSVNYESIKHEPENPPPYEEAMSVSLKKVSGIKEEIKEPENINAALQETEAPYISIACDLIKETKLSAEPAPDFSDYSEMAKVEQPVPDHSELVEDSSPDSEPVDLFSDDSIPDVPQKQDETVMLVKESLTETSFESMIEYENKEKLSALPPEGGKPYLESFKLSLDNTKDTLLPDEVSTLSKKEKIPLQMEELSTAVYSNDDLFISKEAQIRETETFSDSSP

B1: AP-fused Amino-Nogo fragment B (a.a. 622-1018) (ligand)
chain: SAVPSAGASVIQPSSSPLEASSVNYESIKHEPENPPPYEEAMSVSLKKVSGIKEEIKEPENINAALQETEAPYISIACDLIKETKLSAEPAPDFSDYSEMAKVEQPVPDHSELVEDSSPDSEPVDLFSDDSIPDVPQKQDETVMLVKESLTETSFESMIEYENKEKLSALPPEGGKPYLESFKLSLDNTKDTLLPDEVSTLSKKEKIPLQMEELSTAVYSNDDLFISKEAQIRETETFSDSSPIEIIDEFPTLISSKTDSFSKLAREYTDLEVSHKSEIANAPDGAGSLPCTELPHDLSLKNIQPKVEEKISFSDDFSKNGSATSKVLLLPPDVSALATQAEIESIVKPKVLVKEAEKKLPSDTEKEDRSPSAIFSAELSKTSVVDLLYWRDIKKTG
notes: also called AmNg B; AP-AmNgB; not shown: alkaline phosphatase (AP), vector pcAP6
B2: AP-Nogo-66: AP fusion protein of the Nogo-66 domain (protein)
chain: RIYKGVIQAIQKSDEGHPFRAYLESEVAISEELVQKYSNSALGHVNCTIKELRRLFLVDDLVDSLK
modifications: left off: large carriers
notes: AP fusion protein of the Nogo-66 domain
B3: mouse NgR3 expressed on COS-7 cells (receptor, UniProt Q8K0S5 25-424, looked up)
chain: T2 sequence (Q8K0S5 25-424)
notes: whole, on cells; tagged (anti-Myc or anti-His detection); tag not specified

Test [1] has as its target B3. Put plainly: AP fusion on COS-7 cells expressing mouse NgR3. As for the experimental part: (§1) FIG. 3B. […] Conditioned media from transfected HEK293T cells containing 20 nM of indicated AP fusion protein were applied to COS-7 cells expressing mouse NgR1, human NgR2 or mouse NgR3 and bound AP was stained. Surface expression of NgR5 was detected using anti-Myc or anti-His antibodies. AP-AmNgA: AP fusion protein of Amino-Nogo fragment A. AP-AmNgB: AP fusion protein of Amino-Nogo fragment B.

The target of another test is T1, human NgR2. Conditions: expressed on the surface of COS-7 cells; Barton et al. 2003; cited from earlier work.
A further test has as its target T2, mouse NgR3. The conditions noted are these: expressed on the surface of COS-7 cells; Barton et al. 2003; cited from earlier work.
In test [2] the target is T3, AP-fused Amino-Nogo fragment A (a.a. …). Put plainly: AP fusion on COS-7 cells expressing mouse NgR3. How it is done:
as §1

As for B1, the binding result in test [1] is “no binding (tested: 20 nM)”. Consider B2, for which, in the test with human NgR2, the “binding to NgR2” value is “do not bind”. In addition, the “binding to NgR3” value with mouse NgR3 is recorded as “do not bind”. Consider B3, for which the binding result in test [2] was “no binding (tested: 20 nM)”.
